In article PMC9975078:

Target: Heterogeneous nuclear ribonucleoprotein A2/B1 (HNRNPA2B1), endogenous (human (endogenous in U2OS))
Sequence (P22626 whole entry): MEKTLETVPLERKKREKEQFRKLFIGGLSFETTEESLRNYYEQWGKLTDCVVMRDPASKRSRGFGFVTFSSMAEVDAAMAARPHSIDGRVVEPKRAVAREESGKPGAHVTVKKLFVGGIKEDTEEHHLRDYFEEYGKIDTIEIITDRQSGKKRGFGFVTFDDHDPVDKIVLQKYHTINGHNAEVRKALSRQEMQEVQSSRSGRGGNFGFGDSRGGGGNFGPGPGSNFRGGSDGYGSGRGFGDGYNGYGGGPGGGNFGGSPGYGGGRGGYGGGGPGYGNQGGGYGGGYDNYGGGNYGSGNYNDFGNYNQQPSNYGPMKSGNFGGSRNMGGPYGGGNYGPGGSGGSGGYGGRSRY

percent of RPA1 bound by HNRNPA2B1: 43%
Substance: Replication Protein A subunit RPA70 (RPA1), endogenous (from UniProt P27694 1-616) (natural protein)
